The target of one data set is T1, ZNF827 ZnF1-9 deleted (Homo sapiens).
T1 chain: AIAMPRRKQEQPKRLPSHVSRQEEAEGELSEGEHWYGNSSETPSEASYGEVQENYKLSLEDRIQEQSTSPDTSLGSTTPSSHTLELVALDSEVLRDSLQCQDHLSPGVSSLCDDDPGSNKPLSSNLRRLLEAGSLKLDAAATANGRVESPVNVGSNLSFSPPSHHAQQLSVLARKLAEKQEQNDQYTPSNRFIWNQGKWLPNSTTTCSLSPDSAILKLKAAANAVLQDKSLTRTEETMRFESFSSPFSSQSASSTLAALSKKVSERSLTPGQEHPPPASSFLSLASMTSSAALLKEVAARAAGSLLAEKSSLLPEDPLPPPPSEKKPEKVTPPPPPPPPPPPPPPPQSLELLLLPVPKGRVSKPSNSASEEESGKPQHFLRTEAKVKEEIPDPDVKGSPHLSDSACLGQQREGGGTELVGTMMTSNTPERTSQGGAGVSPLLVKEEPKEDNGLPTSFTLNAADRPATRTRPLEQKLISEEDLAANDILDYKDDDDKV
As to the kind of experiment: EMSA; interaction abolished. The following applies: tags: HaloTag (pHTN), expressed in HEK 293T, tag removed by HaloTEV cleavage; label: 32P (gamma). As for the experimental part: (§1) Purified proteins were quantified using a BCA assay using the Pierce™ BCA Protein Assay Kit according to the manufacturer's instructions. Equal amounts of purified proteins were incubated in binding buffer (20 mM HEPES-KOH, pH7.9, 100 mM KCl, 0.8 mM ZnCl₂, 0.2 mM EDTA, 5% glycerol, 0.5 mM DTT and 0.5 mM PMSF) with 6.25 μg/mL poly (dI:dC) and 50 ng/μL BSA on ice for 20 minutes. ˜0.12 nM (˜2.5 fmol) γ-³²P labelled DNA oligonucleotide (see Table 3) probes were added to samples and incubated on ice for another 30 minutes. Binding reactions were loaded onto an 8% native acrylamide/bisacrylamide (19:1, Biorad) gel pre-run at 100V in 0.5× TB buffer (89 mM Tris, 89 mM boric acid) for 20 minutes. Gels were electrophoresed at 150 V for 150 minutes at 4° C., dried at 65° C. for 45 minutes, and then exposed to a Phosphor screen overnight. Gel images were obtained by scanning the screens with a Typhoon FLA9500 Imager (GE Life Sciences).

A further data set addresses T2, ZNF827 ZnF1-3 deleted (Homo sapiens, UniProt Q17R98 SEQ:4-997).
T2 chain: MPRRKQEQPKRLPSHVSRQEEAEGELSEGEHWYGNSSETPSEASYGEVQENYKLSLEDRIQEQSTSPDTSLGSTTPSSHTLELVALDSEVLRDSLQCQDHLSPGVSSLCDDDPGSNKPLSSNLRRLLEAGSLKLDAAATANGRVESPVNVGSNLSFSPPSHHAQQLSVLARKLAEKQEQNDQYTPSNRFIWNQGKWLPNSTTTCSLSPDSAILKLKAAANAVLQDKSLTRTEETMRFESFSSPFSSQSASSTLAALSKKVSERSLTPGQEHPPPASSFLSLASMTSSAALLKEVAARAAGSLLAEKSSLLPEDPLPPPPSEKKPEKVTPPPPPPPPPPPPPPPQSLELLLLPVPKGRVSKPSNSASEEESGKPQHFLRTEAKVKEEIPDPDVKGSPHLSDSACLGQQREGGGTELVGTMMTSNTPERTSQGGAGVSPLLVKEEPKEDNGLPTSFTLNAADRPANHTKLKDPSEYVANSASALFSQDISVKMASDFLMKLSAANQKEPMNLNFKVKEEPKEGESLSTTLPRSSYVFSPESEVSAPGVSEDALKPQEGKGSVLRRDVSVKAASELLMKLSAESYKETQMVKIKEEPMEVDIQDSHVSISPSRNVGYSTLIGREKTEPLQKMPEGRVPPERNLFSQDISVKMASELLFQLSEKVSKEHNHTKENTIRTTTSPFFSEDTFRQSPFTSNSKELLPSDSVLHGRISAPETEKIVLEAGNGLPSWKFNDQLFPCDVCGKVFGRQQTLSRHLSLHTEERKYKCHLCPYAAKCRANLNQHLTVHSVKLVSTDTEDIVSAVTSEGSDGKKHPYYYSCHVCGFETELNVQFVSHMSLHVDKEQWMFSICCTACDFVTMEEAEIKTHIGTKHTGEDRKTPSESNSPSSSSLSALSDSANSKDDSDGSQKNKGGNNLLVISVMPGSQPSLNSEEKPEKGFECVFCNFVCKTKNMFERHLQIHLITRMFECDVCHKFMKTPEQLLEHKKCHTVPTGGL
Kind of data set: EMSA; interaction abolished. The following applies: tags: HaloTag (pHTN), expressed in HEK 293T, tag removed by HaloTEV cleavage; label: 32P (gamma). As for the experimental part: as §1

For TTAGGGTTAGGGTTAGGG (ssDNA) [ss telomeric G rich oligo], the binding result with ZNF827 ZnF1-9 deleted and in the data set with ZNF827 ZnF1-3 deleted was “no binding” each time.

The values above are taken from US20220305003A1, “METHODS OF TREATING CANCER WITH AN INHIBITOR OF ZNF827” (CHILDREN'S MEDICAL RESEARCH INSTITUTE, priority 2019, published 2022).
